From patent publication US20210347900A1 (AstraZeneca / MedImmune, published 2021)

Legend:
[1] = molecular target: T1, human LOX1 on cells (human LOX1 transfected CHO TREX cells) (human, UniProt P78380 1-273); assay: cell-based or functional assay
[2] = molecular target: T2, Human CLEC-7A (Dectin-1) (human, UniProt Q9BXN2-2 66-201, limits assumed); assay: IgG binding ELISA on coated antigen, absorbance at 450 nm
T2 construct: Bought protein; also called C-type lectin domain family 7 member A
T2 sequence (looked up): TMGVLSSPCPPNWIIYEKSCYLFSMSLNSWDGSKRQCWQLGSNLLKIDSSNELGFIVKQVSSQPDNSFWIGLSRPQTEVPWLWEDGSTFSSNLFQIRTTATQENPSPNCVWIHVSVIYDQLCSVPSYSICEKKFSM

[3] = molecular target: T3, Human CLEC-1A (human, UniProt Q8NC01 74-280, limits assumed); assay: as above
T3 construct: Bought protein; also called C-type lectin domain family 1 member A
T3 sequence (looked up): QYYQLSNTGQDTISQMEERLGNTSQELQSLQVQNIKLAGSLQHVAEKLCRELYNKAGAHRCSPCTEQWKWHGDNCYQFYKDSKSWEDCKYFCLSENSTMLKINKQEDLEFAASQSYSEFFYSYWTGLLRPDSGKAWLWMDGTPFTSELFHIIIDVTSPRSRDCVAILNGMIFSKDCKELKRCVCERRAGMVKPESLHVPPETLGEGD

[4] = molecular target: T4, Human CLEC-4L (DC-SIGN) (human, UniProt Q9NNX6 62-404); assay: as above
T4 construct: Bought protein; also called C-type lectin domain family 4 member L
T4 sequence (looked up): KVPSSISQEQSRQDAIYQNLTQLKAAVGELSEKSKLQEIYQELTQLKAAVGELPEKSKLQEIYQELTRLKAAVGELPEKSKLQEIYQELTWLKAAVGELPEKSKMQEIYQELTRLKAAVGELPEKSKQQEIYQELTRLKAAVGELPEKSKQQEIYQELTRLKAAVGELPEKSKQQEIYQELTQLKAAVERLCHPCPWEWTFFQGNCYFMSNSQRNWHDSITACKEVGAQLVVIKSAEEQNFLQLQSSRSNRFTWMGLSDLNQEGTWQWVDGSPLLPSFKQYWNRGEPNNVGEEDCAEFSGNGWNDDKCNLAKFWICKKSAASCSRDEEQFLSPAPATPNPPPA

[5] = molecular target: T5, Human CLEC-1B (CLEC-2) (human, UniProt Q9P126 58-229, limits assumed); assay: as above
T5 construct: Bought protein; also called C-type lectin domain family 1 member B

[6] = molecular target: T6, Human SR-A1 (MSR) (human, UniProt P21757 77-451); assay: as above
T6 construct: Bought protein; also called Macrophage scavenger receptor types I and II
T6 sequence (looked up): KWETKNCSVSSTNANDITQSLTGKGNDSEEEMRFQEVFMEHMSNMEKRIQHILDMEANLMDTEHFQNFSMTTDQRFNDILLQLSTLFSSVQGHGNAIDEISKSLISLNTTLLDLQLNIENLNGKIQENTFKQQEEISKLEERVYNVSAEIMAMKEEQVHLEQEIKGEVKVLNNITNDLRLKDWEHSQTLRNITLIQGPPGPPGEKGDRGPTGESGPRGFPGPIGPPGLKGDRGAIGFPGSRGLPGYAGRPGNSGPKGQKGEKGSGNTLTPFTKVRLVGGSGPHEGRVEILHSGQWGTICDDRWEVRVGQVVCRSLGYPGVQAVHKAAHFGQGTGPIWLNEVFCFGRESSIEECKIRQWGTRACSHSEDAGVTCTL

[7] = molecular target: T7, Human SR-B3 (CD36) (human, UniProt P16671 30-439); assay: as above
T7 construct: Bought protein; also called Platelet glycoprotein 4

[8] = molecular target: T1, human LOX1 on cells (human LOX1 …); assay: saturation binding of DyLight 649 labelled antibody on hLOX1 CHO TREX cells (FMAT)
[9] = molecular target: T1, human LOX1 on cells (human LOX1 …); assay: competition with DyLight 649 oxLDL on human LOX1 CHO TREX cells, FMAT
[10] = molecular target: T1, human LOX1 on cells (human LOX1 …); assay: competition with DyLight 649 AGE-BSA on human LOX1 CHO TREX cells, FMAT
[11] = molecular target: T8, recombinant human LOX1 (R&D Systems) (human, UniProt P78380 61-273); assay: competition with biotin CRP on plate-bound recombinant human LOX1, DELFIA
[12] = molecular target: T9, human LOX1 SNP K167N variant on cells (K167N SNP transfected CHO TREX cells) (human, UniProt P78380 1-273); assay: competition with DyLight 649 oxLDL on human LOX1 K167N CHO TREX cells, FMAT
T9 construct: whole, on cells; also called hLOX1 K167N; K167N hLOX1 CHO

[13] = molecular target: T1, human LOX1 on cells (human LOX1 …); assay: competition with DyLight 649 AGE-BSA on hLOX1 CHO TREX cells (FMAT); row label not given, assay assigned by block order of Table 5
[14] = molecular target: T8, recombinant human LOX1 (R&D Systems); assay: competition with biotin CRP on immobilised recombinant hLOX1 (DELFIA); row label not given, assay assigned by block order of Table 5
[15] = molecular target: T9, human LOX1 SNP K167N variant on cells …; assay: competition with DyLight 649 oxLDL on K167N hLOX1 CHO TREX cells (FMAT); row label not given, assay assigned by block order of Table 5
[16] = molecular target: T1, human LOX1 on cells (human LOX1 …); assay: competition with DyLight 649 oxLDL on hLOX1 CHO TREX cells (FMAT); row label not given, assay assigned by block order of Table 5; first Mean/SD/n block of Table 2 (oxLDL/hLOX1 competition), n = 8
[17] = molecular target: T1, human LOX1 on cells (human LOX1 …); assay: competition with DyLight 649 oxLDL on hLOX1 CHO TREX cells (FMAT); row label not given, assay assigned by block order of Table 5
[18] = molecular target: T1, human LOX1 on cells (human LOX1 …); assay: saturation binding of DyLight 649 labelled antibody on hLOX1 CHO TREX cells (FMAT); DyLight 649 labeled antibody on hLOX1 CHO TREX cells

T7 sequence (P16671 30-439 limits assumed): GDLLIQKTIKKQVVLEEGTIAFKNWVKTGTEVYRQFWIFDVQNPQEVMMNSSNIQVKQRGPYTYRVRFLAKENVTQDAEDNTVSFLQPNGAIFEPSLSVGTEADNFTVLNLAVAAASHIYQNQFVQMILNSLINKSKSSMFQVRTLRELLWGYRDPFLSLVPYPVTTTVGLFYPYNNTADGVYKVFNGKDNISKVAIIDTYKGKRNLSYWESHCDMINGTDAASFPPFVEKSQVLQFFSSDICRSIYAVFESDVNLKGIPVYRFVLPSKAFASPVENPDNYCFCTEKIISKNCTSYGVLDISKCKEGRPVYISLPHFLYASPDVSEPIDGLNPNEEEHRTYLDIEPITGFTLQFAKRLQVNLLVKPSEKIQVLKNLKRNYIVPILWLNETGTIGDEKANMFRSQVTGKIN
T5 sequence (Q9P126 58-229 limits assumed): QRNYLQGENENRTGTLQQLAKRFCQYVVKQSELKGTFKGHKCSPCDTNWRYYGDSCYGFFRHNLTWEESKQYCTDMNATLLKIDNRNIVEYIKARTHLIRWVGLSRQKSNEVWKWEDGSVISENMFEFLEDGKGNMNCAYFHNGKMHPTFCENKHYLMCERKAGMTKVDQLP

B1: LOX696 IgG1-TM (antibody, V domains shown)
VH: QVQLVQSGGGLVQPGRSLRLSCAASGFTFDDYAMHWVRQAPGKGLEWVSGISWNSGSIGYADSVKGRFTISRDNAKNSLYLQMNSLRAEDTAVYYCAREGNWNYDAFDIWGRGTTVTVSS
VL: QSALTQPASVSGSPGQSITISCTGTSSDVGGYNYVSWYQQHPGKAPKLMIYDVSNRPSGVSNRFSGSKSGNTASLTISGLQAEDEADYYCSSYTSSSTNWVFGGGTKLTVL
notes: Whole human IgG1-TM (L234F/L235E/P331S); Labelled with DyLight 649 in Assay 7; also called LOX10696-IgG1-TM; LOX10696 IgG1-TM
[1]
  IC50 of inhibition of Cypher 5E oxLDL internalization in hLOX1 CHO TREX cells (row label not given; assay assigned by block order of Table 5): 0.35 nM
  IC50 of inhibition of oxLDL-dependent ROS generation in hLOX1 CHO TREX cells (row label not given; assay assigned by block order of Table 5): 6.22 nM
[2]
  binding result: no binding (tested: 0.2 µg/mL (single concentration))
[3]
  binding result: no binding (tested: 0.2 µg/mL (single concentration))
[4]
  binding result: no binding (tested: 0.2 µg/mL (single concentration))
[5]
  binding result: no binding (tested: 0.2 µg/mL (single concentration))
[6]
  binding result: no binding (tested: 0.2 µg/mL (single concentration))
[7]
  binding result: no binding (tested: 0.2 µg/mL (single concentration))
[8]
  Kd: 3.3 nM
[9]
  IC50 (read off the curve): ~0.3 nM
[10]
  IC50 (read off the curve): ~0.01 nM
[11]
  IC50 (read off the curve): ~2 nM
[12]
  IC50 (read off the curve): ~0.4 nM
[13]
  IC50: 0.0873 nM
[14]
  IC50: 4.69 nM
[15]
  IC50: 0.246 nM
[16]
  IC50: 0.131 nM

B2: LOX514 IgG1-TM (antibody, V domains shown)
VH: QVQLVQSGAEVKKPGASVKVSCKVSGYTLTELSMHWVRQAPGKGLEWMGGFDPEDGETIYAQKFQGRVTMTEDTSTDTAYMELSSLRSEDTAVYYCATPNGQQGKGVRGWDYYYGMDVWGRGTTVTVSS
VL: QSVVTQPPSVSGAPGQRVTISCTGSSSNIGAGYDVHWYQQLPGTAPKLLIYGNSNRPSGVPDRFSGSKSGTSASLAITGLQAEDEADYYCQSYDSSLSGWVFGGGTKLTVL
notes: Whole human IgG1-TM (L234F/L235E/P331S); Labelled with DyLight 649 in Assay 7; also called LOX10514-IgG1-TM; LOX10514 IgG1-TM
[1]
  IC50 of inhibition of Cypher 5E oxLDL internalization in hLOX1 CHO TREX cells (row label not given; assay assigned by block order of Table 5): 0.772 nM
  IC50 of inhibition of oxLDL-dependent ROS generation in hLOX1 CHO TREX cells (row label not given; assay assigned by block order of Table 5): 8.28 nM
[2]
  binding result: no binding (tested: 0.2 µg/mL (single concentration))
[3]
  binding result: no binding (tested: 0.2 µg/mL (single concentration))
[4]
  binding result: no binding (tested: 0.2 µg/mL (single concentration))
[5]
  binding result: no binding (tested: 0.2 µg/mL (single concentration))
[6]
  binding result: no binding (tested: 0.2 µg/mL (single concentration))
[7]
  binding result: no binding (tested: 0.2 µg/mL (single concentration))
[10]
  IC50 (read off the curve): ~0.1 nM
[11]
  IC50 (read off the curve): ~2 nM
[17]
  IC50: 0.642 nM
[13]
  IC50: 0.207 nM
[14]
  IC50: 1.98 nM
[18]
  Kd: 0.8 nM
